Source: patent US12630594B2, “Allergy antigen and epitope for same” (HOYU CO., LTD., priority 2017, dated 2026)

System: IgE antibody in the serum of a fish-allergic patient
Test: Immunoblotting of two-dimensional electrophoresis patterns of fish meat proteins with patient serum
Assay type: binding, human
Details: for spots detected by immunoblotting, different from spots with serum of non-fish-allergic subject: proteins contained in salmon meat; for specific binding to IgE antibodies from fish-allergic patients: spots in two-dimensional electrophoresis gel of proteins in fish, patients diagnosed with immediate-type allergy
Experimental: Proteins contained in fish were analyzed by the aforementioned technique to identify antigens of an allergy to fish. To be specific, proteins were extracted from fish meat and subjected to two-dimensional electrophoresis under the conditions described below.
The electrophoresis in the first dimension was isoelectric focusing, which was performed using isoelectric focusing gels with a gel-strip length of 5 to 10 cm and a gel pH range of 3 to 10. The pH gradient of the gels in the direction of electrophoresis was as follows: with the total gel-strip length being taken as 1, the gel-strip length up to pH 5 was “a=0.15 to 0.3”, the gel-strip length from pH 5 to 7 was “b=0.4 to 0.7”, and the gel-strip length above pH 7 was “c=0.15 to 0.3”. More specifically, the isoelectric focusing was performed using the IPG gels, Immobiline Drystrip (pH3-10NL), produced by GE Healthcare Bio-Sciences Corporation (hereinafter abbreviated as “GE”). The electrophoresis system used was IPGphor produced by GE. The maximum current of the electrophoresis system was limited to 75 μA per gel strip. The voltage program adopted to perform the first-dimensional isoelectric focusing was as follows: (1) a constant voltage step was performed at a constant voltage of 300 V until the volt-hours reached 750 Vhr (the current variation width during electrophoresis for 30 minutes before the end of this step was 5 μA); (2) the voltage was increased gradually to 1000 V for 300 Vhr; (3) the voltage was further increased gradually to 5000 V for 4500 Vhr; and then (4) the voltage was held at a constant voltage of 5000 V until the total Vhr reached 12000.
The electrophoresis in the second dimension was SDS-PAGE, which was performed using polyacrylamide gels whose gel concentration at the distal end in the direction of electrophoresis was set to 3 to 6% and whose gel concentration at the proximal end was set to a higher value than that at the distal end. More specifically, the SDS-PAGE was performed using NuPAGE 4-12% Bris-Tris Gels (IPG well, Mini, 1 mm) produced by Life Technologies. The electrophoresis system used was XCell SureLock Mini-Cell produced by Life Technologies. The electrophoresis was run at a constant voltage of 200 V for about 45 minutes using an electrophoresis buffer composed of 50 mM MOPS, 50 mM Tris base, 0.1% (w/v) SDS and 1 mM EDTA.
Identification of antigens by immunoblotting was carried out by taking all the steps up to the step of “Second-dimensional SDS-PAGE” as described above in Example 1, followed by the steps of “Transfer to membrane”, “Immunoblotting” and “Analysis” as described below.
To be specific, proteins in the second-dimensional electrophoresis gels were transferred to a membrane (PVDF membrane) according to the following procedure. • (1) The PVDF membrane was immersed in 100% methanol followed by milliQ water, and then moved into the transfer buffer to hydrophilize the PVDF membrane. • (2) After sponge, filter paper, the second-dimensional electrophoresis gels treated by second-dimensional SDS-PAGE, the hydrophilized PVDF membrane, filter paper, and sponge were put in place in this order, the transfer system was energized at a constant voltage of 30 V for one hour. Immunoblotting
Immunoblotting of the membrane was carried out using, as a primary antibody, a serum sample from patient 1 with a fish allergy or a serum sample from a non-fish-allergic subject. This fish-allergic patient 1 was a patient diagnosed with immediate-type allergy to fish. […]

[1] = serum from fish-allergic patient 2 (FIG. 1B left)
[2] = serum from fish-allergic patient 3 (FIG. 1B right)

Row | Molecule | spots detected by immunoblotting, different from spots with serum of non-fish-allergic subject [1] | specific binding to IgE antibodies from fish-allergic patients | spots detected by immunoblotting, different from spots with serum of non-fish-allergic subject [2]
1 | Glycogen phosphorylase, muscle form-like (protein, glycogen phosphorylase, muscle form-like) MSKPLSDHDKRKQISVRGLAGVENVAELKVAFNRHLHFTLVKDRNVANKRDYYFALANTVRDHLVGRWIRTQQYYYEKDPKRVYYISLEFYMGRTLQNTMVNLALENACDEAIYQLGLDMEELEDMEEDAGLGNGGLGRLAACFLDSMASLGLAAYGYGIRYEFGIFNQKIVNGWQVEEADDWLRYGNPWEKARPEYMRPVKFYGRTEHTPDGVKWVDTQVVLALPYDTPIPGYRNNIVNTMRLWSAKAPCDFNLKDFNVGGYIQAVLDRNLCENISRVLYPNDNFFEGKELRLKQEYFVVAATLQDVVRRFKASKFGSREIVRTDFAELPNKVAIQLNDTHPAMAIPELMRVLVDEEKLGWDKAWDVCVRTCAYTNHTVLPEALERWPIDLFHHLLPRHLEIIYEINRRFMEYVASKFPGDNDRLRRMSLIEEGGCKKVNMAHLCIVGSHAVNGVARIHSEILIATLFKDFYELDPHKFQNKTNGITPRRWLVMCNPGLAEVIAEKIGEEFIRDLDQLKRLLKFVNDDAFIRDIAKVKQENKLKFAVHLEEHYKVKINPQSMFDFQVKRIHEYKRQLLNCLHMITYYNRIKKEPNKHWTPRTIMVGGKAAPGYHTAKMIIRLITAIGEVVNHDPVVGDRLKVIFLENYRVTLAEKAIPSADLSEQISTAGTEASGTGNMKFMLNGALTIGTMDGANVEMAEEAGEENFFIFGMRVEDVDAMDAGKGYHASEYYNRIPELKQAMDQIAGGFFSPKQPDLFKELVDLLMHHDRFKVFADYEAYIKCQDKVNQLYKNPKEWTKMVIHNIAGCGKFSSDRTIAQYAREIWGMEPSLEKIPAPDEKLK | newly detected | specific binding to IgE antibodies | 
2 | Myosin-binding protein C, fast-type-like (protein, myosin-binding protein C, fast-type-like) MPEAADAVKPEGEEGEAPAEAEENTAEDDEPLPEGEEGAHQSQEITGLFLQHPETTVAITGTDIVFTAKVDSTTLSRKPTIKWLKGKWLDLGSKAGKHMQFKETFDRATKIYTWDMKIIKVVPGDAGAYRCEVTSKDKCDSSAFDISVEAVQIEEEHDSLAAFKRTDAGEDEGSLDFSALLKATKKKKKPVVDEEKADVWEILKNAQPSEYEKIAFEYGITDLRGLLKRLKKMKTVEPKHSDAFLKRMESAYSVDKGKKIVLQVEVVDPNAQVKWLKNGQEIKSSAKYIIESVGNIRTLTINKCSLADDAAYECVIGEEKSFTEVFVKEPPVTITKLLDDYHVVVGERVEFEVEVSVEGAHVNWMFEDQELSRDTHKYRFKKDGLKHMLIIQEATLDDIGMYWCFTNGGRTKGELEVEEKELEVLQNIADLTVKAEDQAMFKCEVSDEKVTGKWLKDGVEVLPSSRIKLTHIGRIHRLTIDDVKPEDAGDYTFIPDGYALSLSAKLNFLEIKIDYVPRQEPPKIHLDTTGNMVSQNTIIVVAGNKLRLDVEISGEPPPTVVWAKGDTAITAVEGRVRTESRKDLSCFVIEGAEREDEGNYTIIVTNPAGEDKAHLFVKIVDVPDCPENVKCTSVGEDCATMVWDPPKFDGGAPVTGYLMERKKKGSTRWTKLNFDVYEGVTYEAKRMIEGVLYEMRVYAVNGIGMSQPSLNSKPFMPIAATSEPLGLKVHDVTDTTCTLKWLAPEKIGAGGLDGYVIEYCKEGDTEWVVANTELVERQNYTVRNLPTAEKINFRVVAVNIAGRSPPTGLSQPVTIREIVELPKIRLPRYLRQKYIRRVGDKINLTIPFQGKPRPKVQWYKDGEELDTRVASIRNSEVDSILFIRSAERSHSGKYELVLQIENMEARAILEIRIVEAPGPPEVVKVTDVWGFNAALEWKPPKDDGNCEITGYTIQKADKKTNEWFTIYEHNRRTNCTASDLIMGNEYMFRVFSENLVGKSEDFCLSKDTAIIPKIGLEYNPPPFKEKDMQSAPKFIQPLLDRSVVAGYSTTISSAVKTCPKPKIRWLRNKIPLDENPRFLMQNNQGVLTLNIRKPSQYDGGKFTCKAINSLGEDVVECTLLVRALKDKEDGDEK | newly detected | specific binding to IgE antibodies | 
3 | Myosin binding protein H-like (protein, Myosin binding protein H-like) MPAKPAPIKKAAPKEPAPKKEEAPAPAPAEAAPAEVAPPAEVEAPPAEAAPAEAAAPAEAAPTEEKAPAEPAPEQPKAPTPPPPDEPTSEPLEVTVDDKSDTSVTITWRPPKTIPANSGLDGYTVEITKEGTEDWKAANEDLTVSCRYVIKNQTTGDRLLIRVVAVNPGGRSPPATIADPVLVKEVGARPKVRLPRFLRQRYVKKVGEKINIVIPYSGKPKPVVSWLKDGQPLDSKRANIRTSDRDSILFIRQAERVDSGSYEMCVKVDDFEDKAAIIIQIIELPGPPASIKIVDVWGFNVALEWTVPKDNGNTEITGYTVQKADKKTGDWFNILEHYARLNATISDLIMGNTYTFRVFAENKCGLSEECAVTKGEATIVKEVIDYKPTPFVEHDFTEAPKFTTVLNDRSTTVGYSTKLLCSVRGCPKPKIMWMKNKMILNNMDNPKYRMISTGGICTLEIRKPGPYDGGEYVCRAENTLGKVDTGCKLEVRKPGQADADKDKKEQ |  | specific binding to IgE antibodies | detected
4 | Desmin (fragment) (protein, Desmin (fragment)) ISSYRRTFGSGIGSTPGMSSMFSHGGRGSSGSAHMSSRVYEMTKSSARPSYSSGSIRSSSGGAMRSYAGMGEKLDFNLADATNRDFLDTRTNEKAELQHLNDRFASYIEKVRFLEQQNATLVVEIERLRGHEPTRVAEMYEEEMRELRRQVDGMSNDRARMEVERDNLADDLQKLKLRLQEVIHQREEAENNLSAFRADVDSATLARLDLERRIESLQEEITFLKKIHEEEIHELTSQMQETSVQVQMDMSKPDLTVALRDIRMQYEGIAAKNISEAEDWYKSKVSDLNQAVNKNNDALRQAKQESMEFRHQIQSYTCEIDSLKGTNESLLRQMREMEDRLGNEAGGYQDSVTRLEAEIAKMKDEMARHLREYQDLLNVKMALDIEIATYRKLLEGEESRITVSGSKSSHSGSHSAASLYSTVGFRETSPDVGRSAEVHSKKTVLIKTIETRDGEVVSE |  | specific binding to IgE antibodies | detected
5 | Alpha-actinin-3 (protein, PREDICTED: alpha-actinin-3) MTAIETQVQYGSYMTSEQVYMTQEDDWDRDLLLDPAWEKQQRKTFTAWCNSHLRKAGTQIENIEEDFRNGLKLMLLLEVISGERLPKPDKGKMRFHKIANVNKALDFICSKGVKLVSIGAEEIVDGNVKMTLGMIWTIILRFAIQDISVEETSAKEGLLLWCQRKTAPYRNVNVQNFHISWKDGLALCALIHRHRPDLIDYSKLRKDDPMGNLNTAFEVAEKYLDIPKMLDAEDIVNTPKPDEKAIMTYVSCFYHAFAGAEQAETAANRICKVLAVNQENEKLMEEYEKLASELLEWIRRTIPWLENRVAEQTMRAMQQKLEDFRDYRRVHKPPKVQEKCQLEINFNTLQTKLRLSNRPAFMPSEGKMVSDIANAWKGLEQVEKGYEEWLLTEIRRLERLDHLAEKFKQKSSLHESWTSGKVELLSMKDYESASLMEIRALMRKHEAFESDLAAHQDRVEQIAAIAQELNELDYHDAVTINARCQGICDQWDNLGTLTQKRRDSLERVEKLWETIDQLYLEFAKRAAPFNNWMDGAMEDLQDMFIVHSIEEIQSLITAHDQFKATLPEADKERVATMGIQNEIVKIAQTYGIKLSGVNPYTNLSPQDITDKWDAVKHLVPLRDQMLQEEVARQQSNERLRRQFAAQANIIGPWIQTKMEEISHVSVDIAGSLEEQMSNLKQYEQNIINYKCNIDKLEGDHQLSQESLIFDNKHTNYTMEHVRVGWEQLLTTIARTINEVENQILTRDAKGISQEQLNEFRASFNHFDRKRNGMMDPDDFRACLISMGYDLGEVEFARIMTLVDSNNTGVVTFQAFIDFMTRETAETDTADQVMASFKILASDKTYITVEELRRELPPEQADYCISRMTSYIGSGAPPGALDYISFSSALYGESDL |  | specific binding to IgE antibodies | 
